Our source for the Kd, stoichiometry N (TSPYL5 : 2 H3 : 2 H4) and stoichiometry N values is article PMC9305336.

One may read the pKd as −log10 of the Kd, conventionally taken in molar units. A higher pKd goes with a low Kd. A word on the stoichiometry N: it is a count of units in the complex or per binding partner.

pKd: −log10 of the molar value.

For data set [1], the system named is TSPYL5-NLD (Homo sapiens). Nature of the data set: EMSA. As to conditions: 10 mM Hepes pH 7.5, 200 mM NaCl, 1 mM TCEP, 5% glycerol, 0.5 mM EDTA; 30 min on ice then 20 min at 25 °C; 6% native Tris-glycine PAGE, GelGreen stain. (In general: In EMSA bound probe runs differently from free probe, usually more slowly.)
The target of data set [2] is recombinant His-tagged histone H3/H4 (human) (UniProt P68431). Nature of the data set: SEC-MALS; Enrich SEC 70 column in high salt HBS buffer (20 mM Hepes pH 7.5, 2 M NaCl, 1 mM TCEP, 5% glycerol); TSPYL5-NLD alone, H3/H4 alone (H3/H4 dimers to tetramer) and the coexpressed, co-purified complex.

As for 80 bp DNA, in data set [1], the negative-log Kd (pKd) is 6.30.
On the same count and under the same terms, the same measure for 146 bp DNA: 6.42.
With “His-SUMO-tagged TSPYL5-NLD (from UniProt Q86VY4 198-388) (domain or fragment)”, the stoichiometry N (TSPYL5 : 2 H3 : 2 H4) in data set [2] came out at 2.
For “recombinant His-tagged histone H3/H4 (from UniProt P68431 1-136; P62805 1-103) (complex)”, the stoichiometry N in data set [2] came out at 4.
